US20080003178A1 (BIOINCEPT, published 2008)
Primed or numbered codes have the meaning given here. No end group written: not given here. FITC′ = fluorescein label, attached via β-alanine spacer; βAla = NCCC(=O)O

Target: T1, CD58 (human, UniProt P19256 29-250)
T1 construct: whole, on cells; also called platelet marker CD58
T1 sequence: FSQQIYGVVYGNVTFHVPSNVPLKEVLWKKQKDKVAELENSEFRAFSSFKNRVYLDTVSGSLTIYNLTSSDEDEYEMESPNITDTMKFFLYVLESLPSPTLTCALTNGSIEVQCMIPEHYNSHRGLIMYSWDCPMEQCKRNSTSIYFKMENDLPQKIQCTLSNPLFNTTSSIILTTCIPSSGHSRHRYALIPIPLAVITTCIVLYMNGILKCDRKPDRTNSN
Assay: flow cytometry, FITC sPIF-1(15) on human blood cells; no binding to platelets

B1: FITC labeled sPIF-1(15) (peptide)
peptide: {FITC′-βAla}-MVRIKPGSANKPSDD
notes: also called FITC sPIF-1(15); FITC sPIF-1
  binding result: no binding
